The target of one experiment is T1, IL-6 (UniProt P05231 49-212).
T1 construct: interleukin-6 (IL-6); Two in-house constructs are named (IL-6 and IL-6S21); IL-6 bought from R&D Systems was used 'for in vitro experiments'; source: E. coli, produced in house, purified
Kind of experiment: SPR; IL-6 amine-coupled on CM5; gp80 (gp80V4) injected at 50 nM, 30 μl/min, 180 s, dissociation 360 s; 25 °C, HBS-P+; BIAcore 3000; without VHH6. Particulars: both partners purified.

The target of experiment [1] is T2, IL-6–gp80 complex (IL-6 with gp80V4) (Homo sapiens, UniProt P05231;PDB).
T2 construct: interleukin-6 (IL-6), as m2; also called equimolar mixture of IL-6 and gp80
T2 sequence (P05231 28-212, one chain of several): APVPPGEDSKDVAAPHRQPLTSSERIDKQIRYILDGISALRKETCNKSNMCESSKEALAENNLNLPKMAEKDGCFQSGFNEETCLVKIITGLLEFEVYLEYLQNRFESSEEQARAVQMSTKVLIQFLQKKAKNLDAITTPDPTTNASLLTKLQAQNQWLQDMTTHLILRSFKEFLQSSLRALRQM
In words: SPR; His-tagged VHH6 or mutants captured from 1:5 diluted supernatants on a nickel charged NTA chip; equimolar mixture of IL-6 and gp80 (50 nM each) injected for 300 s at 10 μl/min, dissociation 300 s; BIAcore 3000; 25 °C, HBS-P+. Particulars: one partner purified.

The next experiment deals with T3, IL-6 with gp80-hscFc (UniProt P05231;P08887).
T3 construct: interleukin-6 (IL-6), as m2; gp80 of gp80-hscFc, as m4; also called IL-6–gp80 complex (ELISA); source: one partner coated on the plate, the other added together with VHH6
T3 sequence (P05231 30-212, chain 1 of 2): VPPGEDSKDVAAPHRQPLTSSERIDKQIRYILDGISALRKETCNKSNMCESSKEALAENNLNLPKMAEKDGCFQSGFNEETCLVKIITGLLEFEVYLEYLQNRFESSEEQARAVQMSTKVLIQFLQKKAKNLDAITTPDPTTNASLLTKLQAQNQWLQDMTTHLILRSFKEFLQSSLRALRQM
T3 sequence (P08887 20-468, chain 2 of 2): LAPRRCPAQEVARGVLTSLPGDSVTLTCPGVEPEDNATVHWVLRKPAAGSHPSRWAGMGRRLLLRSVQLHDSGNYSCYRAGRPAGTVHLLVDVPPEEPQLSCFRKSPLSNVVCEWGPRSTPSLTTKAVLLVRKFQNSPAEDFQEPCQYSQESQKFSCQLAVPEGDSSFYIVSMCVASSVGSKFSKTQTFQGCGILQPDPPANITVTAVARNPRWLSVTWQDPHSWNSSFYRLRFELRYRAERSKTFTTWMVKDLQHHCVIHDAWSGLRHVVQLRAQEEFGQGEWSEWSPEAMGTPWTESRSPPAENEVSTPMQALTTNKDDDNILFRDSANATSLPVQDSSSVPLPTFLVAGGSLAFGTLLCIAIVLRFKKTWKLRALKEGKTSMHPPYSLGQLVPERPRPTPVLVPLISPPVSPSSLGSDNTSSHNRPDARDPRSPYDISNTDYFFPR
Kind of experiment: ELISA; IL-6 coated overnight and VHH6 added with gp80-hscFc, or gp80-hscFc coated overnight and VHH6 added with IL-6.

The target in the next experiment is T4, gp80-hscFc (UniProt P08887).
T4 construct: IL-6 receptor gp80 (CD126); hscFc is not explained in the text
T4 sequence (P08887 20-365): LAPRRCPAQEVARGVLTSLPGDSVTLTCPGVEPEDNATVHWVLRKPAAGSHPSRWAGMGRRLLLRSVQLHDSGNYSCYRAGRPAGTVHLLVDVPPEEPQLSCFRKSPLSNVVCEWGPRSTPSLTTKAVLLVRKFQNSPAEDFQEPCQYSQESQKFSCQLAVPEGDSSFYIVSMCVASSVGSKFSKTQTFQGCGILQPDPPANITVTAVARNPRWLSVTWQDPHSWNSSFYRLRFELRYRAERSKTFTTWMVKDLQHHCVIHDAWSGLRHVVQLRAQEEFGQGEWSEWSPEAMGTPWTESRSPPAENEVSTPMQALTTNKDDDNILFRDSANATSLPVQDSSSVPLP
Kind of experiment: ELISA; IL-6, gp80 or FusionIL-6 coated at 2 μg/mL in carbonate buffer overnight at 4 °C; supernatant from HEK cells or purified VHHs added; anti-llama-HRP or anti-His-HRP; includes the initial screen.

Experiment [2] concerns the target T5, IL-6–gp80 complex (gp80 construct not stated) (Homo sapiens, UniProt P05231;P08887).
T5 construct: interleukin-6 (IL-6), as m2; gp80, as m5; also called dimeric complex IL-6–gp80; source: mixture of IL-6 and gp80
In words: BLI; VHH6 captured through its His-tag on Ni-NTA tips; FusionIL-6, IL-6, gp80 and IL-6+gp80 in solution; Octet 384 Red. Particulars: both partners purified.

In another experiment the target is T6, gp80 (Homo sapiens, UniProt P08887).
T6 construct: IL-6 receptor gp80 (CD126), soluble; also called CD126; IL-6 specific receptor
The description is as above. Particulars: both partners purified.

In the next experiment the target is T7, gp80-NT647 (Homo sapiens, UniProt P08887, NT647 dye on primary amines of lysine residues (NHS ester)).
T7 construct: IL-6 receptor gp80 (CD126); also called gp80 labelled with NT647; source: labelled with the Monolith labelling Red NHS kit
T7 sequence (P08887 20-468): as the sequence (P08887 20-468, chain 2 of 2) above
In words: MST; IL-6 or gp80 labelled with NT647, alone (VHH6 titrated up to 20 μM) or mixed with the unlabelled partner (10 nM IL-6NT647 and 20 nM gp80; VHH6 titrated in); Monolith NT.115, red channel. The conditions noted are these: both partners purified.

The next experiment has as its target T8, IL-6-NT647 (UniProt P05231, NT647 dye on primary amines of lysine residues (NHS ester)).
T8 construct: interleukin-6 (IL-6); also called IL-6 labelled with NT647; source: labelled with the Monolith labelling Red NHS kit
The description is as above. The conditions noted are these: both partners purified.

The next experiment has as its target T9, gp80-NT647+IL-6 (Homo sapiens, UniProt P08887;P05231, NT647 dye on primary amines of lysine residues (NHS ester)).
T9 construct: gp80, as m9; interleukin-6 (IL-6), as m2; also called mixture of gp80-NT647 and IL-6; source: mixture of labelled gp80 and IL-6
Described as above. Particulars: both partners purified.

A further experiment concerns the target T10, IL-6-NT647+gp80 (Homo sapiens, UniProt P05231;P08887, NT647 dye on primary amines of lysine residues (NHS ester)).
T10 construct: interleukin-6 (IL-6), as m8; gp80, as m5; also called mixture of IL-6-NT647 and gp80; source: mixture of 10 nM IL-6NT647 and 20 nM gp80
The description is as above. Particulars: both partners purified.

The text below walks through data of article PMC5278397, “Discovery of a junctional epitope antibody that stabilizes IL-6 and gp80 protein:protein interaction and modulates its downstream signaling” (Scientific Reports, 2017).

Changes are numbered by the printed parent chain. In names and notes the source's numbering stands.

T9 sequence (P08887 20-468, chain 1 of 2): as the sequence (P08887 20-468, chain 2 of 2) above
T9 sequence (P05231 30-212, chain 2 of 2): as the sequence (P05231 30-212, chain 1 of 2) above
T8 sequence (P05231 30-212): as the sequence (P05231 30-212, chain 1 of 2) above
T10 sequence (P05231 30-212, chain 1 of 2): as above
T10 sequence (P08887 20-468, chain 2 of 2): as the sequence (P08887 20-468, chain 2 of 2) above

B1: gp80V4 (receptor)
chain: GLAPRRCPAQEVARGAGAGDVPPEEPQLSCFRKSPLSNVVCEWGPRSTPSLTTKAVLLVRKFQNSPAEDFQEPCQYSQESQKFSCQLAVPEGDSSFYIVSMCVASSVGSKFSKTQTFQGAGILQPDPPANITVTAVARNPRWLSVTWQDPHSWNSSFYRLRFELRYRAERSKTFTTWMVKDLQHHAVIHDAWSGLRHVVQLRAQEEFGQGEWSEWSPEAMGTPWTESRSPP
modifications: N-glycosylated, high-mannose (Expi-HEK/CHO with kifunensine) for crystallography and HDX-MS. The limits and engineered changes are not given, so they are taken from the deposited 5FUC entity 2: D1 …
On to B1, for which the koff with IL-6 was determined as 0.045 s⁻¹.

B2: VHH6 Y27A mutant (VHH)
VHH: DVQFVESGGGSVHAGGSLRLNCATSGAIYSTYCMGWFRQAPGKEREGVAHIYTNSGRTYYADSVKGRFTISQDNAKNTVYLQMNSLKPEDTAIYYCAARPSIRCASFSATEYKDWGQGTQVTVSS
notes: source: Expi-HEK cells, small scale transient expression, in supernatant; not shown: His6 (TEV-6His), C-terminal, kept
For the molecule B2, the “fold increase of the dissociation rate against VHH6” value (from here on “fold increase”) in [1] came to 1.9 fold.

B3: VHH6 (VHH)
VHH: B2 VHH with A27Y
notes: camelid single domain antibody; The His tag is named on VHH6 for the Octet and the NTA-chip SPR; also called locking antibody; source: Expi-HEK cells, transiently transfected; in supernatant (SPR on the NTA chip) or purified; not shown: His6 (TEV-6His), C-terminal, kept
Regarding B3, the binding result is on record as “binds” in the experiment with IL-6 with gp80-hscFc; “no binding” with gp80-hscFc; “binds” in experiment [2]; “no binding” with gp80; “no binding (tested: up to 20 μM VHH6)” in the experiment with gp80-NT647; “no binding (tested: up to 20 μM VHH6)” with IL-6-NT647. Further, the binding result with gp80-NT647+IL-6 and with IL-6-NT647+gp80 was “binds” each time.

B4: VHH6 double mutant Asn74Ala/Ser101Ala (VHH)
VHH: B2 VHH with A27Y, N74A, S101A
notes: also called double mutant 74/101; source: Expi-HEK cells, small scale transient expression, in supernatant; not shown: His6 (TEV-6His), C-terminal, kept
For B4, the “fold increase” value in experiment [1] came to 3.8 fold.

B5: VHH6 double mutant Ser101Ala/Lys113Ala (VHH)
VHH: B2 VHH with A27Y, S101A, K113A
notes: also called double mutant 113/101; source: Expi-HEK cells, small scale transient expression, in supernatant; not shown: His6 (TEV-6His), C-terminal, kept
Consider B5, for which the “fold increase” value in experiment [1] was found to be 4.3 fold.
